Experimental data from patent publication US20180362629A1 (ZOETIS BELGIUM S A, published 2018).
Where “and” joins values, the source holds several entries; their conditions need not be identical. Equal entries are not always repeated.

Assays:
human β NGF [1] = biological target: T1, human β NGF (human, UniProt P01138 122-241, biotinylated in the TrkA inhibition ELISA (sites not given)); test: TrkA inhibition ELISA; biotin-hNGF bound to rat TrkA/Fc; supernatant 1-fold
Method: (§1) The plates were washed three times with PBS/Tween. The plates were blocked with 200 μl/well of 2% milk in PBS for 1 hour at room temperature. The plates were washed three times as above. Rat TrkA/Fc chimera (R&D Systems, catalog #1056-TK) was added at 1 μg/ml (50 μl/well) in PBS/0.1% BSA and then incubated for 1 hour at room temperature. Biotinylated human NGF was titered and pre-incubated with anti-NGF antibody supernatants diluted 1-fold, 5-fold, and 25-fold, or purified anti-NGF mAbs diluted to 0.08, 0.4, 2, or 10 μg/ml for 1 hour at room temperature on a plate shaker. The negative control was unrelated conditioned supernatant. The positive control was sera from a mouse immunized with NGF. The plates were washed and then 50 μl of each biotinylated NGF/Ab mix was added to the appropriate wells. The plates were incubated for 1 hour at room temperature. The plates were washed. […] The plates were incubated for 30 min at room temperature. The plates were washed. 50 μl of TMB (Invitrogen, cat #00-2023) was added and the reaction was stopped using 2N H₂SO₄ (VWR, cat # BDH3500-1). The absorbance at 450 nm was read on a Spectromax 2E plate reader (Molecular Devices), and the absorbance readings are shown in Table 5 The numerical value indicates binding of biotinylated human β NGF to rat TrkA/Fc chimera.

human β NGF [2] = biological target: T1, human β NGF; test: TrkA inhibition ELISA; biotin-hNGF bound to rat TrkA/Fc; supernatant 5-fold
Method: as §1

human β NGF [3] = biological target: T1, human β NGF; test: TrkA inhibition ELISA; biotin-hNGF bound to rat TrkA/Fc; supernatant 25-fold
Method: as §1

recombinant canine β NGF [4] = biological target: T2, recombinant canine β NGF (canine, UniProt Q29074 110-229 (pig entry)); test: cell-based or functional assay
T2 chain: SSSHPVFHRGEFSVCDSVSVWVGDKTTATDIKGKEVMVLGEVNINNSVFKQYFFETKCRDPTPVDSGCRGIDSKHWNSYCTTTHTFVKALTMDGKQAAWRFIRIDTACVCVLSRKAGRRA

recombinant canine β NGF [5] = biological target: T2, recombinant canine β NGF; test: cell-based or functional assay
recombinant canine β NGF [6] = biological target: T2, recombinant canine β NGF; test: direct ELISA, canine NGF coated at 1 µg/ml, mAb at 2 µg/ml
Method: (§2) To determine if purified mouse anti-NGF mAbs bind to canine β NGF, ELISA plates were coated with 50 μl/well of canine NGF (Abbott Laboratories) at 1 μg/ml in PBS and incubated over night at 4° C. The plates were washed three times with PBS+Tween buffer. The plates were blocked with 200 μl/well of 2% milk in PBS for 1 hour at room temperature. The plates were washed three times as above. Purified antibodies were diluted to 0.4, 2, or 10 μg/ml. 50 μl of each concentration of purified antibody was added to the plates. The plates were incubated for 1 hour at room temperature. The plates were washed. 50 μl of a 5000-fold diluted goat anti-mouse IgG Fc-HRP (Thermo, catalog #31439) was added. The plates were incubated for 1 hour at room temperature. 50 μl of TMB (Invitrogen, catalog #00-2023) was added and the reaction was stopped using 2N H₂SO₄ (VWR, catalog # BDH3500-1). The absorbance at 450 nm was read on a Spectromax 2E plate reader (Molecular Devices). The results are shown in Table 9, and the numerical value indicates binding of mouse anti-NGF antibodies to canine β NGF.

recombinant canine β NGF [7] = biological target: T2, recombinant canine β NGF; test: direct ELISA, canine NGF coated at 1 µg/ml, mAb at 10 µg/ml
Method: as §2

recombinant canine β NGF [8] = biological target: T2, recombinant canine β NGF; test: direct ELISA, canine NGF coated at 1 µg/ml, mAb at 0.4 µg/ml
Method: as §2

recombinant canine β NGF [9] = biological target: T2, recombinant canine β NGF; test: SPR (Biacore), mAb captured on goat anti-mouse IgG Fc, canine NGF injected; Expt 1
Method: (§3) A biomolecular protein interaction analysis was used to evaluate the binding kinetics of the interaction between the purified anti-NGF hybridoma antibodies and recombinant canine β NGF. The antibodies were captured using a goat anti-mouse IgG FC (10000 RU) surface which was directly immobilized to a CM5 chip using an amine coupling procedure according to the manufacturer's instructions (Biacore). A sample size of 5 μl of antibody at a concentration of 1 μg/ml was captured at 10 μl minute. Recombinant canine NGF was used as the antigen. Canine NGF was injected at 75 μl/min (concentration range: 5-0.039 nM) for mouse antibodies. The association rate was monitored for 3.3 minutes and the dissociation rate was monitored for 10 minutes. Aliquots of canine NGF were also simultaneously injected over a reference reaction CM surface to record any nonspecific binding background. The instrument sensitivity for on-rate is I×IO⁷, such that any on-rate that is faster than I×IO⁷ may not be accurately measured; the instrument sensitivity for off-rate is […], such that any off-rate that is slower than 1×10⁻⁶ may not be accurately measured. Therefore, an on-rate that is faster than 1×10⁷ is recorded as >1×10⁷ and an off-rate that is slower than 1×10⁻⁶ is recorded as <1×10⁻⁶.

recombinant canine β NGF [10] = biological target: T2, recombinant canine β NGF; test: SPR (Biacore), mAb captured on goat anti-mouse IgG Fc, canine NGF injected; Expt 2
Method: as §3

recombinant canine β NGF [11] = biological target: T2, recombinant canine β NGF; test: SPR (Biacore), mAb captured on goat anti-mouse IgG Fc, canine NGF injected; Average
Method: as §3

T1 sequence (P01138 122-241 limits assumed): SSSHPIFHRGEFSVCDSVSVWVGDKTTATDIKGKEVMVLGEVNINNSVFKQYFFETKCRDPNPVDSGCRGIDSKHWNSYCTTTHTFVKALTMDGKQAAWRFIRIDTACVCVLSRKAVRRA

Row | Molecule | absorbance at 450 nm (human β NGF [1]) | absorbance at 450 nm (human β NGF [2]) | absorbance at 450 nm (human β NGF [3]) | IC50, canine NGF-induced TF-1 cell proliferation (70 pM canine NGF) (recombinant canine β NGF [4]) | PathHunter IC50 (441 pM canine NGF) (recombinant canine β NGF [5]) [nM] | SureFire pERK IC50 (128 pM canine β NGF) (recombinant canine β NGF [5]) | absorbance at 450 nm (recombinant canine β NGF [6]) [A450] | absorbance at 450 nm (recombinant canine β NGF [7]) [A450] | absorbance at 450 nm (recombinant canine β NGF [8]) [A450] | Kd (recombinant canine β NGF [9]) [nM] | koff (recombinant canine β NGF [9]) [s⁻¹] | kon (recombinant canine β NGF [9]) [M⁻¹ s⁻¹] | Kd (recombinant canine β NGF [10]) [nM] | koff (recombinant canine β NGF [10]) [s⁻¹] | kon (recombinant canine β NGF [10]) [M⁻¹ s⁻¹] | Kd (recombinant canine β NGF [11]) [nM] | koff (recombinant canine β NGF [11]) [s⁻¹] | kon (recombinant canine β NGF [11]) [M⁻¹ s⁻¹]
1 | unrelated conditioned supernatant (negative control) | 0.465 OD450 and 0.372 OD450 and 0.386 OD450 | 0.456 OD450 and 0.336 OD450 and 0.388 OD450 | 0.462 OD450 and 0.318 OD450 and 0.386 OD450 | – | – | – | – | – | – | – | – | – | – | – | – | – | – | –
2 | PR-1254977 (antibody, mouse IgG1, V domains shown, also called 21D4; ML129-21D4.4A11) VH: EVQLQQSGAELVKPGASVKLSCTASGFNIKDTYIYWVKQRPEQGLEWIGRIDPANGNTIYASKFQGKASITADTSSNTAYMQLSSLTSGDTAVYYCAGYGYYAYWGQGTTLTVSS VL: DVVLTQTPLSLPVNIGDQASISCKSTKSLLNGDGFTYLDWYLQKPGQSPQLLIYLVSNRFSGVPDRFSGSGSGTDFTLKISRVEAEDLGVYYCFESNYLFTFGSGTKLEMKR | – | – | – | 0.217 nM | 0.181 | 17.6 pM | 0.414 | 0.552 | 0.223 | < 0.0139 | 0.000139 | > 1e+07 | < 0.016 | 0.00016 | > 1e+07 | < 0.015 | 0.00015 | > 1e+07
3 | PR-1254972 (antibody, mouse IgG2b, V domains shown, also called 20B10; ML129-20B10.3F4) VH: EVHLVESGGGLVKPGGFLILSCAASGFTFSDYYMFWIRQTPGKRLEWVATISDGGSYTYYTDNVKGRFTISRDNVKNNLYLQMSHLKSADTAMYYCARDWSDSEGFAYWGQGTLVTVSA VL: DVLMTQTPLSLPVSLGDQASISCRSSQSIVQSNGNTYLEWYLQKPGQSPKLLIYKVSNRFSGVPDRFSGSGSGTDFTLKISRVEAEDLGVYYCFQGSHVPFTFGSGTKLEIKR | – | – | – | 0.303 nM | 0.313 | 0.228 nM | 0.091 | 0.154 | 0.071 | < 0.314 | 0.00314 | > 1e+07 | < 0.321 | 0.00321 | > 1e+07 | < 0.318 | 0.00318 | > 1e+07
4 | PR-1254973 (antibody, mouse IgG2b, V domains shown, also called 2B12; ML129-2B12.5G9) VH: QVQLQQPGAELVKPGASVKLSCKASGYTFTNYWMHWVKQRPGQGLEWIGRIDPYGGGTKHNEKFKRKATVTADKSSSTAYILLSSLTSEDSAVYYCTRSGYDYYFDVWGTGTTVTVSS VL: DIQMTQSPASLSASVGETVTVTCRASENIYSFLAWHQQKQGKSPQLLVYNANTLAEGVPSRFSGSGSGTQFSLKINSLQPEDFGSYYCQHHFGTPFTFGSGTKLEIKR | – | – | – | 39 pM | 0.143 | 18.8 pM | 0.836 | 0.905 | 0.769 | < 0.0121 | 0.000121 | > 1e+07 | < 0.0138 | 0.000138 | > 1e+07 | < 0.013 | 0.00013 | > 1e+07
5 | 23F1 hybridoma supernatant (antibody, mouse IgG1, V domains shown, Tested as supernatant of the hybridoma before subcloning; mouse IgG1 kappa; also called ML129-23F1.4G3) VH: EVQLQQSGAELVKPGASVKLSCTASGFNIKDTYIYWVKQRPEQGLEWIGRIDPANGNTIYASKFQGKATITADTSSNTAYMQLSSLTSGDTAVYYCAGYGYYAYWGQGTTLTVSS VL: DVVLTQTPLSLPVNIGDQASISCKSTKSLLNGDGFTYLDWYLQKPGQSPQLLIYLVSNRFSGVPDRFSGSGSGTDFTLKISRVEAEDLGVYYCFESNYLFTFGSGTKLEMKR | 0.108 OD450 | 0.14 OD450 | 0.276 OD450 | – | – | – | – | – | – | – | – | – | – | – | – | – | – | –
6 | 21D4 hybridoma supernatant (antibody, mouse IgG1, V domains shown, Tested as supernatant of the hybridoma before subcloning; mouse IgG1 kappa; also called ML129-21D4.4A11) VH: EVQLQQSGAELVKPGASVKLSCTASGFNIKDTYIYWVKQRPEQGLEWIGRIDPANGNTIYASKFQGKASITADTSSNTAYMQLSSLTSGDTAVYYCAGYGYYAYWGQGTTLTVSS VL: DVVLTQTPLSLPVNIGDQASISCKSTKSLLNGDGFTYLDWYLQKPGQSPQLLIYLVSNRFSGVPDRFSGSGSGTDFTLKISRVEAEDLGVYYCFESNYLFTFGSGTKLEMKR | 0.133 OD450 | 0.242 OD450 | 0.404 OD450 | – | – | – | – | – | – | – | – | – | – | – | – | – | – | –
7 | 20B10 hybridoma supernatant (antibody, mouse IgG2b, V domains shown, Tested as supernatant of the hybridoma before subcloning; mouse IgG2b kappa; also called ML129-20B10.3F4) VH: EVHLVESGGGLVKPGGFLILSCAASGFTFSDYYMFWIRQTPGKRLEWVATISDGGSYTYYTDNVKGRFTISRDNVKNNLYLQMSHLKSADTAMYYCARDWSDSEGFAYWGQGTLVTVSA VL: DVLMTQTPLSLPVSLGDQASISCRSSQSIVQSNGNTYLEWYLQKPGQSPKLLIYKVSNRFSGVPDRFSGSGSGTDFTLKISRVEAEDLGVYYCFQGSHVPFTFGSGTKLEIKR | 0.166 OD450 | 0.2 OD450 | 0.289 OD450 | – | – | – | – | – | – | – | – | – | – | – | – | – | – | –
8 | 14A9 hybridoma supernatant (antibody, mouse IgG1, V domains shown, Tested as supernatant of the hybridoma before subcloning; mouse IgG1 kappa; also called ML130-14A9.5B12) VH: EVQLVESGGGAVKPGGSLTLSCAASGFTFSNHYMYWVRQTPEKRLEWVASISDGGAYTFYPDTVKGRFTISRDNVNNNLYLQMRHLKSEDTAMYYCTREESANNGFAFWGQGTLVTVSA VL: DVLMTQTPLSLPVSLGDQASISCRSSQSILHSNGNTYLEWYLQKPGQSPNLLIYRVSNRFSGVPDRFSGSGSGTDFTLKISRVEAEDLGVYYCFQGAHVPFTFGSGTKLEIKR | 0.121 OD450 | 0.208 OD450 | 0.376 OD450 | – | – | – | – | – | – | – | – | – | – | – | – | – | – | –
9 | 3F7 hybridoma supernatant (antibody, mouse IgG1, V domains shown, Tested as supernatant of the hybridoma before subcloning; mouse IgG1 kappa; also called ML130-3F7.4A8) VH: QVQLKESGPGLVAPSQSLSITCTVSGFSLTGYNINWVRQPPGKGLEWLGMIWGYGDTDYNSALKSRLSISKDNSKSQVFLKMNSLQTDDTARYYCARDHYGGNDWYFDVWGTGTTVTVSS VL: DIQMTQTTSSLSASLGDRVTITCRASQDITNYLNWYQQKPDGTVKLLIYYTSRLHSGVPSRFSGSGSGTDYSLTISNLDQEDIATYFCQQGKTLPRTFGGGTKLEIKR | 0.056 OD450 | 0.083 OD450 | 0.149 OD450 | – | – | – | – | – | – | – | – | – | – | – | – | – | – | –
